Measurements published in patent US20250115680A1 (PROFOUNDBIO US, published 2025).

B1: humanized antibody 13C4 (antibody, V domains shown)
VH: QVQLVESGGGLVKPGGSLRLSCAASGFAFSTYDMFWIRQAPGKGLEWVSTISSGGGYTYYPGSVKGRFTISRDNAKNSLYLQMNSLRAEDTAVYYCVRPLLRDSYFYFDVWGQGTMVTVSS
VL: EIVMTQSPATLSVSPGERATLSCRASSSVSSSYLHWYQQKPGQAPRLLIFRTSNLASGIPARFSGSGSGTEYTLTISSLQSEDAAVYYCQQYSGYPLTFGQGTKLEIK
notes: Only variable regions are tied to 13C4; It was detected with anti-human Fc
B2: humanized antibody 2C8 (antibody, V domains shown)
VH: QIQLVQSGAEVKKPGASVKVSCKASGYTFTTYGMSWVRQAPGQGLEWMGWINTHSGVPTYVDEFKGRVTMTLDTSTSTAYMELSSLRSEDTAVYYCARSPFDYGSRGAWFVYWGQGTTVTVSS
VL: DVVMTQSPDSLAVSLGERATINCRSSQSIVHNSGDTYLEWYQQKPGQPPKLLIYKVSNRFPGVPDRFSGSGSGTDFTLTISSLQAEDLAVYYCFQGSHVPWTFGGGTKVEIK
notes: Only variable regions are tied to 2C8 by name; It was detected with anti-human Fc
B3: humanized antibody 2C5 (antibody, V domains shown)
VH: QVQLVQSGAEVKKPGASVKVSCKASGYTFTDYYINWVRQAPGQGLEWMGDINPYSGGPVYNQKFMARVTMTVDKSINTAYMELSRLRSDDTAVYYCARGDYYGSNYNYWGQGTLVTVSS
VL: EIVLTQSPATLSVSPGERATLSCRASQNIGTSIHWYQQKPGQAPRLLIKFASESISGIPARFSGSGSGTEFTLTISSLQSEDIAVYYCQQSNNWPYTFGQGTKLEIK
notes: Only variable regions are tied to 2C5; It was detected with anti-human Fc, so it has a human Fc

How the values were obtained:
[1] = biological target: T1, mouse PTK-7 recombinant protein (mouse, UniProt Q8BKG3 23-696, limits assumed); test: ELISA, plate-coated mouse PTK7 recombinant protein
T1 construct: also called mouse PTK7 protein
T1 sequence (looked up): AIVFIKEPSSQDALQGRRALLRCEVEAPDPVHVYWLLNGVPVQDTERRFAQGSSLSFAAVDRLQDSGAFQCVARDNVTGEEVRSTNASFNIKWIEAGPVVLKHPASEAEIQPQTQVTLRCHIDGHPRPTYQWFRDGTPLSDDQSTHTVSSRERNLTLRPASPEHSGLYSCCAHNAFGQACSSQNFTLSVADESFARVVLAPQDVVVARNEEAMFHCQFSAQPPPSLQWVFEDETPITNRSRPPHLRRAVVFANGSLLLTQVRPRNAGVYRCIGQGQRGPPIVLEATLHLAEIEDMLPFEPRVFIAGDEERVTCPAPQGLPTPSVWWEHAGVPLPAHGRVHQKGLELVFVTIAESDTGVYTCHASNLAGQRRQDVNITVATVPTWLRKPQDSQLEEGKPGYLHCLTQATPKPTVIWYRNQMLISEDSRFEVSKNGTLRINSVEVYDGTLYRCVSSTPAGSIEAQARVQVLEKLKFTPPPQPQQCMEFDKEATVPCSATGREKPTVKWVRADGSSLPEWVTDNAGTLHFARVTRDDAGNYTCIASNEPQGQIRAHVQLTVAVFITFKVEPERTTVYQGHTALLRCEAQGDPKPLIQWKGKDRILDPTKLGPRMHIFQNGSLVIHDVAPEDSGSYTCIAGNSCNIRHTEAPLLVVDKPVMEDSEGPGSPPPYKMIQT
Description: (§1) Binding specificity property was tested by ELISA according to a standard protocol. Specifically, 96-well micro-plates were coated with 2 μg/mL human, cynomolgus, mouse, and rat PTK-7 recombinant protein in PBS 100 μL per well, incubated overnight at 4° C. Plates were washed twice by TBS+0.5% Tween20. 200 μL of blocking buffer (2% BSA in PBS) was added to each well and incubated at 37° C. for 2 hours. Plates were washed using the buffer mentioned above. Serially diluted antibodies were added to the ELISA plate with 100 μL per well and incubated for 1 hour at room temperature. Then plates were washed for 3 times. After washing, HRP conjugated anti-human Fc antibody solution (abcam, ab98624, diluted with blocking buffer) was added to the plate with 100 μl per well. The plates were incubated at room temperature for 1 hour and then washed for 3 times. Then TMB solution was added to plates with 100 μl per well, placed at room temperature for 5-15 mins, then the stop solution (2M H₂SO₄) was added with 50 μl per well. Finally, the result was measured by absorbance at A₄₅₀ and A₆₃₀.

[2] = biological target: T2, human PTK7 extra-cellular domain (ECD) linked to His tag (human, UniProt Q13308 31-704); test: BLI (Octet RED), antibody on anti-human IgG Fc tips, PTK7 ECD-His 100 to 1.56 nM in solution, 1:1 global fit
T2 construct: extracellular domain; also called hPTK7-his; human PTK7-his protein; not shown: His tag
T2 sequence (looked up): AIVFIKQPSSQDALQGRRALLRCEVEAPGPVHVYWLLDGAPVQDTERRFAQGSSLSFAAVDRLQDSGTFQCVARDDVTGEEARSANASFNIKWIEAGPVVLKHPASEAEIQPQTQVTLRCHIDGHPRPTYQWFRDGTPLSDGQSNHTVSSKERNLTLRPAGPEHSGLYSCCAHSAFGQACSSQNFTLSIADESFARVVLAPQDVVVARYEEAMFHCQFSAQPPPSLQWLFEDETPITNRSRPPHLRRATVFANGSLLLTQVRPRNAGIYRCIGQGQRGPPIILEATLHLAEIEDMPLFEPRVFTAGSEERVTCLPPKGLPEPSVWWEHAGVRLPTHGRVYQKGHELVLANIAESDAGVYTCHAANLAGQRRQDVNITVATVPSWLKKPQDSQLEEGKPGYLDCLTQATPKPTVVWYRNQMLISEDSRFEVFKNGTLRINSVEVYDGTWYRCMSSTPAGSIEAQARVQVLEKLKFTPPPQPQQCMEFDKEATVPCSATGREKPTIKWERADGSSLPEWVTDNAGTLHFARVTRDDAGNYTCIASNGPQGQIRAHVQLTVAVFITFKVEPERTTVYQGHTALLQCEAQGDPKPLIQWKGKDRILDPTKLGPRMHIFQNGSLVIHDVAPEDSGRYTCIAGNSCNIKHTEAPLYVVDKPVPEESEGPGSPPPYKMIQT
Description: Recombinant proteins consisting of the PTK7 extra-cellular domain (ECD) linked to His tag were purchased from ACRO biosystems. […] Binding assays using varying concentrations from 100 nM down to 1.56 nM of recombinant proteins (human, cynomolgus) in solution were performed using Octet RED (ForteBio). Association time was set at 180 seconds and dissociation time was set at 300 seconds. Binding affinity was calculated using ForteBio Data Acquisition 6.3 software (ForteBio). Affinity was derived by fitting the kinetic data to a 1:1 Langmuir binding model utilizing global fitting algorithms.

[3] = biological target: T3, rat PTK-7 recombinant protein (rat, UniProt A0A8I6ALM9 40-713); test: ELISA, plate-coated rat PTK7 recombinant protein
T3 construct: also called rat PTK7 protein
Description: as §1

Binder | binding result [1] | Kd [2] [nM] | koff [2] [s⁻¹] | kon [2] [M⁻¹ s⁻¹] | binding result [3]
B1 | no binding | 0.798 | 0.000132 | 166000 | no binding
B2 | no binding | – | – | – | no binding
B3 | – | ≤ 0.00139 | < 1e-07 | 34800 | –
